Experimental data reported in US20210363269A1 (ALX ONCOLOGY, published 2021).
Each block holds one binder with its values, some of them ahead of it.

Tests used:
[1] = molecular target: T1, human SIRP-α v2 (human); experiment: SPR
T1 construct: also called Human v2; Human V2
In short: (§1)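 Antibodies were amine-coupled (GLC chip) or captured via biotinylated Protein A (NLC chip) on a ProteOn XPR36, and SIRP analytes were injected in one-shot kinetic mode at 25° C in PBS pH 7.4 with 0.01% Tween-20. KD is kd/ka from apparent rate constants given by a global simple Langmuir fit of double-referenced data, with analyte concentrations nominal.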

[2] = molecular target: T2, human SIRP-α v1 (human, UniProt P78324 31-149); experiment: SPR
T2 construct: also called Human v1; Human V1
In short: as §1

[3] = molecular target: T3, human SIRPγ isoform 1 (human, UniProt Q9P1W8 29-147); experiment: SPR, antibody on GLC chip; fitted KD (M) in Table Q; weak binding, 23.9 nM
T3 construct: also called Gamma; Human SIRPg
Experimental: All experiments were performed at 25° C. using a SPR-based ProteOn XPR36 biosensor (BioRad, Inc, Hercules, Calif.) equipped with GLC or NLC sensor chips. […] Purification was carried out by standard Protein A affinity column chromatography and eluted antibodies were stored in PBS buffer.
For the method using GLC chip, the analytes were injected and flowed over anti-SIRPα antibodies immobilized (˜1000 RUs) on GLC chips using Proteon™ Amine Coupling Kit. For the immobilization step, GLC chip was activated with EDAC/Sulpho-NHS 1:1 (Biorad) diluted 1/100 for 300 s at 25 μL/min. Anti-SIRPα antibodies were diluted to 80 nM concentration in 10 mM sodium acetate buffer pH 4.5 and immobilized to the chip at 30 μL/min for 50 s. Chip was inactivated with ethanolamine for 300 s at 25 μL/min. The analytes (e.g., SIRP-α from different species, SIRP-β, SIRP-γ) were injected in a “one-shot” kinetic mode at nominal concentrations of 100, 33, 11, 3.7, 1.2 and 0 nM. Association times were monitored for 90 s at 100 μL/min, and dissociation times were monitored for 1200 s. The surfaces were regenerated with a 2:1 v/v blend of Pierce IgG elution buffer/4M NaCl.

[4] = molecular target: T4, human SIRPβ isoform 1 (human, UniProt O00241 30-148); experiment: SPR, antibody on GLC chip
T4 construct: also called Beta; Human SIRPb
In short: (§2)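 Antibodies purified with Protein A were amine-coupled (~1000 RU) to a ProteOn XPR36 GLC chip, and SIRP analytes were injected one-shot at 100, 33, 11, 3.7, 1.2 and 0 nM in PBS pH 7.4 with 0.01% Tween-20 at 25° C. Each run used 90 s association at 100 μL/min followed by 1200 s dissociation. KD was derived as kd/ka from a global Langmuir fit to double-referenced sensorgrams.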

[5] = molecular target: T5, BALBc mouse SIRP-α (mouse (BALB/c strain)); experiment: SPR, antibody on GLC chip
T5 chain: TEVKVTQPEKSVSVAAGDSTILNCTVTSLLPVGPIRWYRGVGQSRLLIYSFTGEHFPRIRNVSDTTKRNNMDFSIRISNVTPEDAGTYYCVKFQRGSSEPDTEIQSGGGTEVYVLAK
In short: as §2

[6] = molecular target: T1, human SIRP-α v2; experiment: SPR, antibody on GLC chip
In short: as §2

[7] = molecular target: T6, BL6 mouse SIRP-α (mouse (C57BL/6 strain), UniProt P97797 32-148); experiment: SPR, antibody on GLC chip
T6 construct: also called C57BL/6
T6 sequence: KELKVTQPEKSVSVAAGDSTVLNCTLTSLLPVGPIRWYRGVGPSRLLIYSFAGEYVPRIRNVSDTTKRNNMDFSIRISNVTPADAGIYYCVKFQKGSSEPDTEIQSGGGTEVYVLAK
In short: as §2

[8] = molecular target: T7, NOD mouse SIRP-α (mouse (NOD strain)); experiment: SPR, antibody on GLC chip
T7 chain: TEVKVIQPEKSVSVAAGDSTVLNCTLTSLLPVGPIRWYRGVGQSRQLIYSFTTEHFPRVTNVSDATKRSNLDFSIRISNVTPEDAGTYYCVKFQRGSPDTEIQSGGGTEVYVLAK
In short: as §2

[9] = molecular target: T2, human SIRP-α v1; experiment: SPR, antibody on GLC chip
In short: as §2

[10] = molecular target: T4, human SIRPβ isoform 1; experiment: SPR Koff +/-
In short: as §1

[11] = molecular target: T2, human SIRP-α v1; experiment: SPR Koff +/-
In short: as §1

[12] = molecular target: T8, NOD mouse SIRP-α D1 domain (mouse (NOD strain)); experiment: SPR, captured scFv-Fc
T8 chain: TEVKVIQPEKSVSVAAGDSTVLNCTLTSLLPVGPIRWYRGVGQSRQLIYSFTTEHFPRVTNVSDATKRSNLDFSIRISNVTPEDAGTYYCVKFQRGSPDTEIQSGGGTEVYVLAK
In short: (§3)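 Antibody clones in scFv-Fc format were captured from pre-filtered culture media onto anti-human IgG Fc, amine-coupled (about 4000 RU) on a GLC chip of a ProteOn XPR36 instrument. SIRP analytes were flowed in PBS pH 7.4 with 0.01% Tween-20 at 25° C. Data were double-referenced against interspot and buffer-blank responses. Dissociation rate constants (koff) were derived by fitting a 1:1 Langmuir model.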

[13] = molecular target: T9, cynomolgus SIRP-α D1 domain (SEQ ID NO:12) (cynomolgus, UniProt Q5TFQ8 30-148 (human entry), limits assumed); experiment: SPR, captured scFv-Fc
T9 construct: also called cyno2; Cyno2
T9 chain: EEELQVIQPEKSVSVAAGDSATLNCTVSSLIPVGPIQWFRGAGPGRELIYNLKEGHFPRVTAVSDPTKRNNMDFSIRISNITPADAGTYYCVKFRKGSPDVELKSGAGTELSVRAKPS
In short: as §3

[14] = molecular target: T10, C57BL/6 mouse SIRP-α D1 domain (mouse (C57BL/6 strain), UniProt P97797 32-148); experiment: SPR, captured scFv-Fc
T10 sequence: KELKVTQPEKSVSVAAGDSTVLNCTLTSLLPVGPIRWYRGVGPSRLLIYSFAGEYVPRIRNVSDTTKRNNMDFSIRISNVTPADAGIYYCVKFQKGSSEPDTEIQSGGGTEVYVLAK
In short: as §3

[15] = molecular target: T11, cynomolgus SIRP-α D1 domain (SEQ ID NO:11) (cynomolgus, UniProt Q5TFQ8 30-148 (human entry), limits assumed); experiment: SPR, captured scFv-Fc
T11 construct: also called cyno1
T11 chain: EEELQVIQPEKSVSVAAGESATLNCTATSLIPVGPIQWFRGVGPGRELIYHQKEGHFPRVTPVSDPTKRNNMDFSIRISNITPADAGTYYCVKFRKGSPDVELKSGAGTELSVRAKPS
In short: as §3

[16] = molecular target: T12, human SIRP-α v2 D1 domain (human); experiment: SPR, captured scFv-Fc
T12 construct: also called human v2; human α v2
In short: as §3

[17] = molecular target: T13, human SIRPγ isoform 1 (human, UniProt Q9P1W8 29-147); experiment: SPR, captured scFv-Fc
T13 construct: also called sirpg; sirp-g
In short: as §3

[18] = molecular target: T14, mouse 129 SIRP-α D1 domain (mouse (129 strain), UniProt P97797 32-150); experiment: SPR, captured scFv-Fc
T14 construct: also called m129
T14 chain: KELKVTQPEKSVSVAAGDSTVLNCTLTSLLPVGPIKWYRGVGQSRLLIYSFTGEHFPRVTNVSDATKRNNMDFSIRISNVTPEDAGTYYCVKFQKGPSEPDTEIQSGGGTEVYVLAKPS
In short: as §3

[19] = molecular target: T15, human SIRPβ isoform 1 (human, UniProt O00241 30-148); experiment: SPR, captured scFv-Fc
T15 construct: also called sirpb1; Sirpb1
In short: as §3

T2 sequence (P78324 31-149 limits assumed): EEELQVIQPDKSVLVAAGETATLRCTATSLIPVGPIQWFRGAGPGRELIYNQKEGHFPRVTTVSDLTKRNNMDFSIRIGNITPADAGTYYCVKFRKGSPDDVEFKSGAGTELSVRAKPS
T1 sequence (chain, as listed by the source limits assumed): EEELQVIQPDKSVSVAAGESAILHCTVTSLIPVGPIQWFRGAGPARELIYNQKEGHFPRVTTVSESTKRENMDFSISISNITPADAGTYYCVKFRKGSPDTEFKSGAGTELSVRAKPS

Kd [1]: 3.22 nM | Kd [2]: 0.458 nM | Kd [3]: 23.9 nM | Kd [4]: 4.35 nM | Kd [5]: 0.35 nM | Kd [6]: 1.63 nM | Kd [7]: 12.7 nM | Kd [8]: 0.554 nM | Kd [9]: 0.458 nM
B1: antibody 136 (antibody, V domains shown)
VH: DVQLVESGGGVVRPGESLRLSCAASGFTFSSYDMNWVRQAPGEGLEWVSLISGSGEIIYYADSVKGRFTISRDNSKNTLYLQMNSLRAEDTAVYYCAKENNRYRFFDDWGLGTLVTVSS
VL: ETVLTQSPGTLTLSPGERATLTCRASQSVYTYLAWYQEKPGQAPRLLIYGASSRATGIPDRFSGSGSGTEFTLTISSLQSEDFAVYYCQQYYDRPPLTFGGGTKVEIK
notes: also called AB136; S136

binding result [10]: no binding | binding result [11]: no binding
B2: antibody 214 (antibody, V domains shown)
VH: DVQLVESEGGVVRPGESLRLSCEASGFTFRNSYMTWVRQAPGEGLEWVSTISDTGDTAYYADSVKGRFTISRDNSKNSLYLQMNSLRAEDTAIYYCAKSWIWWTFFDYWGLGTLVTVSS
VL: ALTQPASVSANLGGTVEITCSGGNSNHYGWYQQKSPGSAPVTLIYADTNRPSNIPSRFSGSTSGSTSTLTITGVQAEDEAVYYCGGSSTGDGIFGAGTTLTVL
notes: also called S214

binding result [12]: no binding (tested: 100 nM) | binding result [13]: no binding (tested: 100 nM) | binding result [14]: no binding (tested: 100 nM) | binding result [15]: no binding (tested: 100 nM) | binding result [16]: no binding (tested: 100 nM) | binding result [17]: no binding (tested: 100 nM) | binding result [18]: no binding (tested: 100 nM) | binding result [19]: no binding (tested: 100 nM)
B3: S138 scFv-Fc (scFv)
scFv: EIVLTQSPGTLSVSPGERVILTCRASQSVDTYNLAWYQQKPGQAPRLLIYDLSTRATGIPDRFSGSGSGTEFTLTINSLEPEDFAVYYCHQYYDWPPYTFGGGTKVEIKGQSSRSSGGGGSSGGGGSDVQLVESGGGVVRPGESLRLSCAASGFTFSNYAMNWVRQAPGEGLEWVSGISGRGGDTYYADSVKGRFTISRDNSKNTLYLQMNSLRAEDTAIYYCAKGTWNYGSFDYWGLGTLVTVSSSLDPKSSDKTDTCPPCPAPELLGGPSVFLFPPKPKDTLMISRTPEVTCVVVDVSHEDPEVKFNWYVDGV
notes: scFv-Fc; Human framework
